Data: patent US20210145933A1 (COMPLEMENT THERAPEUTICS, published 2021)
One block for each binder: values may come before it.

Tests used:
C3b [1] = biological target: T1, C3b (human, UniProt P01024 23-667; P01024 749-1663); test: BLI (OctetRed96), biotinylated C3b on streptavidin (SAX) sensors, CR1a in solution; the same table prints KD Error (%) 0.4186, Full R^2 0.8731, '30 µgml' under Data Location
T1 construct: In the cofactor assays it was plain 'pure C3b protein'; also called pure C3b protein; biotinylated C3b protein
Experimental: (§1) The affinity of CR1a for C3b protein was measured using OctetRed96 System (ForteBio, Pall Corp., USA). Biotinylated C3b protein was diluted in 0.2% PBST to final concentration of 0.4 μg/mL and loaded onto High Precision Streptavidin (SAX) Biosensors (ForteBio, Pall Corp., USA) for 600 s, previously hydrated with the same buffer for 20 min. C3b-loaded sensors were then washed with 0.2% PBST for 150 s (baseline) and dipped into wells containing CR1a in different concentrations ranging from 30.0 μg/mL to 2.6 μg/mL for 600 s (association) followed by wash with 0.2% PBST for 600 s (dissociation). Association and dissociation profiles were recorded and analysed with ForeBio Data Analysis v9 (ForteBio, Pall Corp., USA). The negative control i.e. 0.2% PBST containing well was used in parallel to subtract binding resulting from nonspecific interactions with the sensors. Experiments were performed using the kinetics mode, at 25° C. and sample plates were pre-agitated for 3 min. The binding profiles were globally fitted to 1:1 (one analyte in solution to one binding site on the surface). […] Binding affinities were also determined for native soluble C3b-binding complement regulators Factor H (FH) and FHL-1 to immobilised C3b.

C3b [2] = biological target: T1, C3b; test: BLI (OctetRed96), immobilised biotinylated C3b, FH in solution
Experimental: as §1

C3b [3] = biological target: T1, C3b; test: BLI (OctetRed96), biotinylated C3b on streptavidin (SAX) sensors, FH in solution; the same table prints KD Error (%) 3.0192, Full R^2 0.9770, '167 µgml' under Data Location, FH ~155kDa
Experimental: as §1

C3b [4] = biological target: T1, C3b; test: BLI (OctetRed96), immobilised biotinylated C3b, FHL-1 in solution
Experimental: as §1

C3b [5] = biological target: T1, C3b; test: BLI (OctetRed96), biotinylated C3b on streptavidin (SAX) sensors, FHL-1 in solution; the same table prints KD Error (%) 3.1325, Full R^2 0.9550, '278 µgml' under Data Location, FHL-1 ~50kDa
Experimental: as §1

T1 sequence (P01024 23-667 limits assumed, chain 1 of 2): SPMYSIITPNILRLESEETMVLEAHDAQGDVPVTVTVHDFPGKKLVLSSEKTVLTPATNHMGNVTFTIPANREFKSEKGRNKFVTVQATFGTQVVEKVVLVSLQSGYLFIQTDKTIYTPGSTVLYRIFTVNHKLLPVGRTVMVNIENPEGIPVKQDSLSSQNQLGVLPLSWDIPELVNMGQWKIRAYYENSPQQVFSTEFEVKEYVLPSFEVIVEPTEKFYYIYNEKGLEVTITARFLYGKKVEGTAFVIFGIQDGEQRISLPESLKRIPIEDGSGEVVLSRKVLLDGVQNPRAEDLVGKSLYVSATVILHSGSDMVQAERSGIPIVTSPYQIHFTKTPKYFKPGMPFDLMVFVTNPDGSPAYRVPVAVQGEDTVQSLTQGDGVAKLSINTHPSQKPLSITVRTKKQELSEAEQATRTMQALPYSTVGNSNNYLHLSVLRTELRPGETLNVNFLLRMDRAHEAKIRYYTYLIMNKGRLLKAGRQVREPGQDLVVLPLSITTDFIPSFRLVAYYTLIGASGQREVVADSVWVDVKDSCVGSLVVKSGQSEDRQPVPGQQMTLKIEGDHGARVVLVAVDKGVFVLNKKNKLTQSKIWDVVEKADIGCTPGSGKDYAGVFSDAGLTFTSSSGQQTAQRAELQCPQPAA
T1 sequence (P01024 749-1663 limits assumed, chain 2 of 2): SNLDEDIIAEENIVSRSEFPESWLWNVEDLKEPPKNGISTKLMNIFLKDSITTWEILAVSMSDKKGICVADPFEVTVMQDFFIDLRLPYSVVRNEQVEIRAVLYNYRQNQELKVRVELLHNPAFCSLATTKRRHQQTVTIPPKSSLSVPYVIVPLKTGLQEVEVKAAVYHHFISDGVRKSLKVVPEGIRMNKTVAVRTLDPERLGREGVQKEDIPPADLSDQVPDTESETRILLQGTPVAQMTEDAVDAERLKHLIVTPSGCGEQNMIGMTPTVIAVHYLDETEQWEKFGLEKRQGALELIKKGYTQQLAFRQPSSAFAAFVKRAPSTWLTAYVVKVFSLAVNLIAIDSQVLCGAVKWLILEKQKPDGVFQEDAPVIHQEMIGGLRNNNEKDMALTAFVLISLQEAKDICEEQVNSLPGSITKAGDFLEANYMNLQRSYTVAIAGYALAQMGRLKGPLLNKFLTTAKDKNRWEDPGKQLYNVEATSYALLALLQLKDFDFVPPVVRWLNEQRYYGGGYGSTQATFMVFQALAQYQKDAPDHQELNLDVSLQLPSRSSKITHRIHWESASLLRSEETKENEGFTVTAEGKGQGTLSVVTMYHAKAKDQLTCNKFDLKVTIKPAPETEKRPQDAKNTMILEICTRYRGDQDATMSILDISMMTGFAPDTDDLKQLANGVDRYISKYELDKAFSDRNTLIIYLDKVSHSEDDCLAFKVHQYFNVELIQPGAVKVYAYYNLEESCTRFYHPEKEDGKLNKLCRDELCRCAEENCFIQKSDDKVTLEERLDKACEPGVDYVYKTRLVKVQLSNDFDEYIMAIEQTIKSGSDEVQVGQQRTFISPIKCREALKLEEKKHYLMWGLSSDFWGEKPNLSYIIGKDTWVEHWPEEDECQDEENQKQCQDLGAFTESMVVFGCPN

- Kd (C3b [1]): 21 nM
B1: CR1a (CCPs 8-10 of human Complement Receptor 1, secreted from HEK293 cells) (receptor)
chain: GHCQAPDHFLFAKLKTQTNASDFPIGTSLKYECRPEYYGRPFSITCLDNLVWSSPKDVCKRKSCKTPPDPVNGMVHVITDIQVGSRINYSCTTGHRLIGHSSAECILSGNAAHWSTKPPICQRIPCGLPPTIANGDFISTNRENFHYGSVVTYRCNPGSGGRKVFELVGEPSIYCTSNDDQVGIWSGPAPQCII
notes: also called Human Complement Receptor 1 CCPs 8-10; recombinant CR1a protein

- Kd (C3b [2]): 580 nM
- Kd (C3b [3]): 583 nM
B2: Complement Factor H (FH) (other)
chain: EDCNELPPRRNTEILTGSWSDQTYPEGTQAIYKCRPGYRSLGNVIMVCRKGEWVALNPLRKCQKRPCGHPGDTPFGTFTLTGGNVFEYGVKAVYTCNEGYQLLGEINYRECDTDGWTNDIPICEVVKCLPVTAPENGKIVSSAMEPDREYHFGQAVRFVCNSGYKIEGDEEMHCSDDGFWSKEKPKCVEISCKSPDVINGSPISQKIIYKENERFQYKCNMGYEYSERGDAVCTESGWRPLPSCEEKSCDNPYIPNGDYSPLRIKHRTGDEITYQCRNGFYPATRGNTAKCTSTGWIPAPRCTLKPCDYPDIKHGGLYHENMRRPYFPVAVGKYYSYYCDEHFETPSGSYWDHIHCTQDGWSPAVPCLRKCYFPYLENGYNQNYGRKFVQGKSIDVACHPGYALPKAQTTVTCMENGWSPTPRCIRVKTCSKSSIDIENGFISESQYTYALKEKAKYQCKLGYVTADGETSGSITCGKDGWSAQPTCIKSCDIPVFMNARTKNDFTWFKLNDTLDYECHDGYESNTGSTTGSIVCGYNGWSDLPICYERECELPKIDVHLVPDRKKDQYKVGEVLKFSCKPGFTIVGPNSVQCYHFGLSPDLPICKEQVQSCGPPPELLNGNVKEKTKEEYGHSEVVEYYCNPRFLMKGPNKIQCVDGEWTTLPVCIVEESTCGDIPELEHGWAQLSSPPYYYGDSVEFNCSESFTMIGHRSITCIHGVWTQLPQCVAIDKLKKCKSSNLIILEEHLKNKKEFDHNSNIRYRCRGKEGWIHTVCINGRWDPEVNCSMAQIQLCPPPPQIPNSHNMTTTLNYRDGEKVSVLCQENYLIQEGEEITCKDGRWQSIPLCVEKIPCSQPPQIEHGTINSSRSSQESYAHGTKLSYTCEGGFRISEENETTCYMGKWSSPPQCEGLPCKSPPEISHGVVAHMSDSYQYGEEVTYKCFEGFGIDGPAIAKCLGEKWSHPPSCIKTDCLSLPSFENAIPMGEKKDVYKAGEQVTYTCATYYKMDGASNVTCINSRWTGRPTCRDTSCVNPPTVQNAYIVSRQMSKYPSGERVRYQCRSPYEMFGDEEVMCLNGNWTEPPQCKDSTGKCGPPPPIDNGDITSFPLSVYAPASSVEYQCQNLYQLEGNKRITCRNGQWSEPPKCLHPCVISREIMENYNIALRWTAKQKLYSRTGESVEFVCKRGYRLSSRSHTLRTTCWDGKLEYPTCAKR

- Kd (C3b [4]): 1200 nM
- Kd (C3b [5]): 1170 nM
B3: Complement Factor H isoform FHL-1 (other)
chain: EDCNELPPRRNTEILTGSWSDQTYPEGTQAIYKCRPGYRSLGNVIMVCRKGEWVALNPLRKCQKRPCGHPGDTPFGTFTLTGGNVFEYGVKAVYTCNEGYQLLGEINYRECDTDGWTNDIPICEVVKCLPVTAPENGKIVSSAMEPDREYHFGQAVRFVCNSGYKIEGDEEMHCSDDGFWSKEKPKCVEISCKSPDVINGSPISQKIIYKENERFQYKCNMGYEYSERGDAVCTESGWRPLPSCEEKSCDNPYIPNGDYSPLRIKHRTGDEITYQCRNGFYPATRGNTAKCTSTGWIPAPRCTLKPCDYPDIKHGGLYHENMRRPYFPVAVGKYYSYYCDEHFETPSGSYWDHIHCTQDGWSPAVPCLRKCYFPYLENGYNQNYGRKFVQGKSIDVACHPGYALPKAQTTVTCMENGWSPTPRCIRVSFTL
notes: also called factor H-like protein 1
